Data published in article PMC10724065, “Evolution of a plant growth-regulatory protein interaction specificity” (Nature Plants, 2023).

B1: Arabidopsis thaliana AtSLY1 (yeast bait fusion) [Arabidopsis thaliana] / A. thaliana GAI (yeast prey fusion) [Arabidopsis thaliana] (parent complex)
chain 1: MKRSTTDSDLAGDAHNETNKKMKSTEEEEIGFSNLDENLVYEVLKHVDAKTLAMSSCVSKIWHKTAQDERLWELICTRHWTNIGCGQNQLRSVVLALGGFRRLHSLYLWPLSKPNPRARFGKDELKLTLSLLSIRYYEKMSFTKRPLPESK
chain 2: MKRDHHHHHHQDKKTMMMNEEDDGNGMDELLAVLGYKVRSSEMADVAQKLEQLEVMMSNVQEDDLSQLATETVHYNPAELYTWLDSMLTDLNPPSSNAEYDLKAIPGDAILNQFAIDSASSSNQGGGGDTYTTNKRLKCSNGVVETTTATAESTRHVVLVDSQENGVRLVHALLACAEAVQKENLTVAEALVKQIGFLAVSQIGAMRKVATYFAEALARRIYRLSPSQSPIDHSLSDTLQMHFYETCPYLKFAHFTANQAILEAFQGKKRVHVIDFSMSQGLQWPALMQALALRPGGPPVFRLTGIGPPAPDNFDYLHEVGCKLAHLAEAIHVEFEYRGFVANTLADLDASMLELRPSEIESVAVNSVFELHKLLGRPGAIDKVLGVVNQIKPEIFTVVEQESNHNSPIFLDRFTESLHYYSTLFDSLEGVPSGQDKVMSEVYLGKQICNVVACDGPDRVERHETLSQWRNRFGSAGFAAAHIGSNAFKQASMLLALFNGGEGYRVEESDGCLMLGWHTRPLIATSAWKLSTN
B2: Arabidopsis thaliana AtSLY1 (yeast bait fusion) [Arabidopsis thaliana] / A. thaliana RGA (yeast prey fusion) [Arabidopsis thaliana] (parent complex)
chain 1: B1 chain 1
chain 2: MKRDHHQFQGRLSNHGTSSSSSSISKDKMMMVKKEEDGGGNMDDELLAVLGYKVRSSEMAEVALKLEQLETMMSNVQEDGLSHLATDTVHYNPSELYSWLDNMLSELNPPPLPASSNGLDPVLPSPEICGFPASDYDLKVIPGNAIYQFPAIDSSSSSNNQNKRLKSCSSPDSMVTSTSTGTQIGGVIGTTVTTTTTTTTAAGESTRSVILVDSQENGVRLVHALMACAEAIQQNNLTLAEALVKQIGCLAVSQAGAMRKVATYFAEALARRIYRLSPPQNQIDHCLSDTLQMHFYETCPYLKFAHFTANQAILEAFEGKKRVHVIDFSMNQGLQWPALMQALALREGGPPTFRLTGIGPPAPDNSDHLHEVGCKLAQLAEAIHVEFEYRGFVANSLADLDASMLELRPSDTEAVAVNSVFELHKLLGRPGGIEKVLGVVKQIKPVIFTVVEQESNHNGPVFLDRFTESLHYYSTLFDSLEGVPNSQDKVMSEVYLGKQICNLVACEGPDRVERHETLSQWGNRFGSSGLAPAHLGSNAFKQASMLLSVFNSGQGYRVEESNGCLMLGWHTRPLITTSAWKLSTAAY

Variants of: B1
Assay: yeast 2-hybrid; parent: 0.3; read off a plot

Variant | response
chain 1 MKRSTTDSDLAGDAHNETNKKMKSTEEEEIGFSNLDENLVYEVLKHVDAKTLAMSSCVSKIWHKTAQDERLWELICTRHWTNIGCGQNQLRSVVLALGGFRRLHSLYLWPLSKPNPRARFGKDELELTLSLLSIRYYEKMSFTKRPLPESK [chain 1 K126E] | ~19 β-galactosidase units
chain 1 MKRSTTDSDLAGDAHNETNKKMKSTEEEEIGFSNLDENLVYEVLKHVDAKTLAMSSCVSKIWHKTAQDERLWELICTRHWTNIGCGQNQLRSVVLALGGFRRLHSLYLWPLSKPNPRARFGKDELNLTLSLLSIRYYEKMSFTKRPLPESK [chain 1 K126N] | ~51 β-galactosidase units

More lines, now with the values ahead:

response | Variant
~41 β-galactosidase units | chain 1 MKRSTTDSDLAGDAHNETNKKMKSTEEEEIGFSNLDENLVYEVLKHVDAKTLAMSSCVSKIWHKTAQDERLWELICTRHWTNIGCGQNQLRSVVLALGGFRRLHSLYLWPLSKSNPRARFGKDELKLTLSLLSIRYYEKMSFTKRPLPESK [chain 1 P114S]
~37 β-galactosidase units | chain 1 MKRSTTDSDLAGDAHNETNKKMKSTEEEEIGFSNLDENLVYEVLKHVDAKTLAMSSCVSKIWHKTAQDERLWELICTRHWTNIGCGQNQLRSVVLALGGFRRLHSLYLWPLSKLNPRARFGKDELKLTLSLLSIRYYEKMSFTKRPLPESK [chain 1 P114L]
~24 β-galactosidase units | chain 1 MKRSTTDSDLAGDAHNETNKKMKSTEEEEIGFSNLDENLVYEVLKHVDAKTLAMSSCVSKIWHKTAQDERLWELICTRHWTNIGCGQNQLRSVVLALGGFRRLHSLYLWPLSKPNPRARFGKDELTLTLSLLSIRYYEKMSFTKRPLPESK [chain 1 K126T]

Variants of: B1
Assay: yeast 2-hybrid; parent: 0.35; read off a plot

response | Variant
~55 β-galactosidase units | chain 1 MKRSTTDSDLAGDAHNETNKKMKSTEEEEIGFSNLDENLVYEVLKHVDAKTLAMSSCVSKIWHKTAQDERLWELICTRHWTNIGCGQNQLRSVVLALGGFRRLHSLYLWPLSKSNPRARFGKDELKLTLSLLSIRYYEKMSFTKRPLPESK [chain 1 P114S]
~63 β-galactosidase units | chain 1 MKRSTTDSDLAGDAHNETNKKMKSTEEEEIGFSNLDENLVYEVLKHVDAKTLAMSSCVSKIWHKTAQDERLWELICTRHWTNIGCGQNQLRSVVLALGGFRRLHSLYLWPLSKLNPRARFGKDELKLTLSLLSIRYYEKMSFTKRPLPESK [chain 1 P114L]

Variants of: B1
Assay: yeast 2-hybrid; parent: 0.35; read off a plot
Remark: another data set of the same source

response | Variant
~25 β-galactosidase units | chain 1 MKRSTTDSDLAGDAHNETNKKMKSTEEEEIGFSNLDENLVYEVLKHVDAKTLAMSSCVSKIWHKTAQDERLWELICTRHWTNIGCGQNQLRSVVLALGGFRRLHSLYLWPLSKLNPRARFGKDELKLTLSLLSIRYYEKMSFTKRPLPESK [chain 1 P114L]

Variants of: B1
Assay: pull-down (IP: His, immunoblot); without GST-GID1C, without GA3 (GAI in A Form); parent: 1

ratio to parent | Variant
1.89 | chain 1 MKRSTTDSDLAGDAHNETNKKMKSTEEEEIGFSNLDENLVYEVLKHVDAKTLAMSSCVSKIWHKTAQDERLWELICTRHWTNIGCGQNQLRSVVLALGGFRRLHSLYLWPLSKLNPRARFGKDELKLTLSLLSIRYYEKMSFTKRPLPESK [chain 1 P114L]

Variants of: B1
Assay: pull-down (IP: His, immunoblot); with GST-GID1C, with GA3 (GAI in A + A' Forms); parent: 2.41

response | Variant
7.38 relative anti-MBP band intensity (SLY1 without GST-GID1C and GA3 = 1.00) | chain 1 MKRSTTDSDLAGDAHNETNKKMKSTEEEEIGFSNLDENLVYEVLKHVDAKTLAMSSCVSKIWHKTAQDERLWELICTRHWTNIGCGQNQLRSVVLALGGFRRLHSLYLWPLSKLNPRARFGKDELKLTLSLLSIRYYEKMSFTKRPLPESK [chain 1 P114L]

Variants of: B2
Assay: yeast 2-hybrid; read off a plot

Variant | response
chain 1 MKRSTTDSDLAGDAHNETNKKMKSTEEEEIGFSNLDENLVYEVLKHVDAKTLAMSSCVSKIWHKTAQDERLWELICTRHWTNIGCGQNQLRSVVLALGGFRRLYSLYLWPLSKPNPRARFGKDELKLTLSLLSIRYYEKMSFTKRPLPESK [chain 1 H104Y] | ~55 β-galactosidase units
chain 1 MKRSTTDSDLAGDAHNETNKKMKSTEEEEIGFSNLDENLVYEVLKHVDAKTLAMSSCVSKIWHKTAQDERLWELICTRHWTNIGCGQNQLRSVVLALGGFRRLHSLYLWPLSKPNPRARFGKDELNLTLSLLSIRYYEKMSFTKRPLPESK [chain 1 K126N] | ~3.9 β-galactosidase units
chain 1 E138K | ~3.7 β-galactosidase units

Second part, the variant after the results:

response | Variant
~1.5 β-galactosidase units | chain 1 MKRSTTDSDLAGDAHNETNKKMKSTEEEEIGFSNLDENLVYEVLKHVDAKTLAMSSCVSKIWHKTAQDERLWELICTRHWTNIGCGQNQLRSVVLALGGFRRLHSLYLWPLSKLNPRARFGKDELKLTLSLLSIRYYEKMSFTKRPLPESK [chain 1 P114L]
~3.6 β-galactosidase units | chain 1 MKRSTTDSDLAGDAHNETNKKMKSTEEEEIGFSNLDENLVYEVLKHVDAKTLAMSSCVSKIWHKTAQDERLWELICTRHWTNIGCGQNQLRSVVLALGGFRRLHSLYLWPLSKSNPRARFGKDELKLTLSLLSIRYYEKMSFTKRPLPESK [chain 1 P114S]
~0.6 β-galactosidase units | chain 1 MKRSTTDSDLAGDAHNETNKKMKSTEEEEIGFSNLDENLVYEVLKHVDAKTLAMSSCVSKIWHKTAQDERLWELICTRHWTNIGCGQNQLRSVVLALGGFRRLHSLYLWPLSKPNPRARFGKDELTLTLSLLSIRYYEKMSFTKRPLPESK [chain 1 K126T]
~24 β-galactosidase units | chain 1 MKRSTTDSDLAGDAHNETNKKMKSTEEEEIGFSNLDENLVYEVLKHVDAKTLAMSSCVSKIWHKTAQDERLWELICTRHWTNIGCGQNQLRSVVLALGGFRRLHSLYLWPLSKPNPRARFGKDELKLALSLLSIRYYEKMSFTKRPLPESK [chain 1 T128A]
~1.3 β-galactosidase units | chain 1 MKRSTTDSDLAGDAHNETNKKMKSTEEEEIGFSNLDENLVYEVLKHVDAKTLAMSSCVSKIWHKTAQDERLWELICTRHWTNIGCGQNQLRSVVLALGGFRRLHSLYLWPLSKPNPRARFGKDELKLSLSLLSIRYYEKMSFTKRPLPESK [chain 1 T128S]
